Reference: publication PMC2947466
Positions count from the first letter of the chain named. Numbers in names are those of the source.

B1: spastin MIT domain, purified (domain or fragment)
chain: HKQAFEYISIALRIDEDEKAGQKEQAVEWYKKGIEELEKGIAVIVTGQGEQCERARRLQAKMMTNLVMAKDRLQLL
B2: spastin F124D MIT domain, purified (domain or fragment)
chain: B1 chain with F5D
B3: spartin MIT domain (residues 1-107), purified (domain or fragment)
chain: MEQEPQNGEPAEIKIIREAYKKAFLFVNKGLNTDELGQKEEAKNYYKQGIGHLLRGISISSKESEHTGPGWESARQMQQKMKETLQNVRTRLEILEKGLATSLQNDL

Each binder was assayed against GST-Ist1-CTR (residues 296-335) (human) (assay: SPR).

Kd	Binder
4.6 µM	B1
471 µM	B2
10.4 µM	B3
